For two substances, IC80 concentration (inhibition of LPL activity) results are on record in patent publication US20200199212A1.

Assay [1] deals with cynomolgus LPL on HEK293 cells (cynomolgus). In words: cell-based or functional assay.
The target in assay [2] is rat LPL on HEK293 cells (rat) (UniProt Q06000). In words: cell-based or functional assay.
Chain of rat LPL on HEK293 cells (rat) (Q06000 28-474): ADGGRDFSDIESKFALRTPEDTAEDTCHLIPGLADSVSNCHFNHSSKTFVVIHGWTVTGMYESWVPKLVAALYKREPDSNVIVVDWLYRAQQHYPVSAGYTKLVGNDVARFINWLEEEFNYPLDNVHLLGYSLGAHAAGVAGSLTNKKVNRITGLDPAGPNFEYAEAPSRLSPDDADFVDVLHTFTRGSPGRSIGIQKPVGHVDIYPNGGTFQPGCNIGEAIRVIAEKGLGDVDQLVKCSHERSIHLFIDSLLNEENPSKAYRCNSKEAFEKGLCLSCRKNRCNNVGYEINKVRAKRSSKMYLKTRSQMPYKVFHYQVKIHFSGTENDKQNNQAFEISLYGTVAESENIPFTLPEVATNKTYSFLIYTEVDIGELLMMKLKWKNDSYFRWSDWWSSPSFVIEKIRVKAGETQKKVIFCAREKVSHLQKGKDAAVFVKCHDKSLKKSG

In turn, “cyno ANGPTL3/8 complex (from UniProt A0A2K5UDC5 17-460)” showed an IC80 concentration (inhibition of LPL activity) in assay [1] of 0.38 nM.
Consider “rat ANGPTL3/8 complex (from UniProt F7FHP0 17-446)”, for which the IC80 concentration (inhibition of LPL activity) in assay [2] stood at 0.81 nM.
